Measured values taken from PMC6776665, “A tri-ionic anchor mechanism drives Ube2N-specific recruitment and K63-chain ubiquitination in TRIM ligases” (Nature Communications, 2019).

Columns and labels:
[1] = biological target: the molecule itself; test: crystal structure; T21-R with Ube2N^C87K/K92A~Ub, 2.8 Å, space group P1, two complexes in the asymmetric unit (2xT21-R, 2xUbe2N~Ub)
ubiquitin (WT) = biological target: T1, ubiquitin (WT) (UniProt P0CG48 1-76); test: as above; details: both partners purified
T1 construct: WT ubiquitin, the cut product of the ubiquitin precursor (G76 printed as the residue linked to Ube2N); In the rows of the crystal structure it is the ubiquitin moiety of the conjugate m8, linked by G76 to Ube2N K87; source: E. coli Rosetta 2 DE3, purified (perchloric acid precipitation, cation exchange, SEC)

B1: TRIM21-RING (residue 1-85) (domain or fragment)
chain: GSHMASAARLTMMWEEVTCPICLDPFVEPVSIECGHSFCQECISQVGKGGGSVCPVCRQRFLLKNLRPNRQLANMVNNLKEISQEARE
notes: tripeptide scar left at the N-terminus after cleavage of the GST tag; TRIM21 RING domain (T21-R), residues 1-85; Wild-type RING; a RING dimer in the crystal (2xT21-R and 2xUbe2N~Ub in the asymmetric unit); also called T21-R; TRIM21 RING domain; source: E. coli C41 DE3 or BL21 DE3, purified (glutathione sepharose, tag cleaved on beads, SEC); not shown: GST, N-terminal, cleaved
- binding result [1]: binds
- binding result (ubiquitin (WT)): binds
